# Data published in paper PMC5914118, “Exploiting the Concept of Multivalency with ^68Ga- and ^89Zr-Labelled Fusarinine C-Minigastrin Bioconjugates for Targeting CCK2R Expression” (Contrast Media & Molecular Imaging, 2018).
# Like-named read-outs stand apart in the source and are kept apart here. Marks after values point to notes of the source that are not given here.
# Assays:
# [1] = format: physicochemical
# Procedure: Aliquots (50 μL) of ^68Ga- and ^89Zr-labelled mono-, di-, and trimer (10 μM) were diluted in 450 μL PBS. After adding 500 μL octanol the mixture was vortexed with 1400 rpm (MS 3 basic vortexer, IKA, Staufen, Germany) for 15 min at RT followed by centrifugation for 2 min at 4500 rpm. Subsequently, 100 μL aliquots of the organic and the aqueous layer were collected and logD values were calculated using Excel (n = 3, six replicates) after gamma counter measurement.
# [2] = system: A431-CCK2R/A431-mock tumour xenografted BALB/c nude mice; conditions: mouse, in vivo
# Procedure: All animal experiments were conducted in compliance with the Austrian and Dutch animal protection laws and with approval of the Austrian Ministry of Science (BMWF-66.011/000604-II/3b/2012 and BMWFW-66.011/0049-WF/II/3b/2014). In vivo stability studies were conducted in 5-week-old female BALB/c mice (in-house breed, ZVTA Innsbruck, Dr. Hermann Dietrich). The biodistribution studies were performed using female 8−10-week-old athymic BALB/c nude mice (Charles River Laboratories, Sulzfeld, Germany). Tumour xenografts were induced by subcutaneous injection of 2 × 10^6 A431-CCK2R cells (receptor positive) in the right and the same amount of A431-mock (receptor negative) in the left flank. Tumours were allowed to grow until they had reached a volume of 0.3–0.6 cm^3. To evaluate the biodistribution profile nude mice (n = 4) were intravenously injected with either 1-2 MBq ^68Ga- or 0.3 MBq ^89Zr-labelled mono-, di-, and trimer (0.1–0.2 nmol). The animals were sacrificed by cervical dislocation after 1 h as well as 2 h and 4 h in case of ^68Ga- and ^89Zr-labelled trimer, followed by the collection of organs and tissue. The collected samples were measured in the gamma counter and the results were calculated as percentage of injected dose per gram tissue (% ID/g).
# [3] = target: T1, human CCK2R (A431-CCK2R cells) (Homo sapiens, UniProt P32239); design: method as in PMID 28462989; conditions: reference peptide, whole A431-CCK2R cells; cited from earlier work
# T1 construct: expressed in transfected cells; host or cells: A431 human epidermoid carcinoma cells, stably transfected (plasmid pCR3.1); gift from Aloj
# T1 sequence (P32239 1-447): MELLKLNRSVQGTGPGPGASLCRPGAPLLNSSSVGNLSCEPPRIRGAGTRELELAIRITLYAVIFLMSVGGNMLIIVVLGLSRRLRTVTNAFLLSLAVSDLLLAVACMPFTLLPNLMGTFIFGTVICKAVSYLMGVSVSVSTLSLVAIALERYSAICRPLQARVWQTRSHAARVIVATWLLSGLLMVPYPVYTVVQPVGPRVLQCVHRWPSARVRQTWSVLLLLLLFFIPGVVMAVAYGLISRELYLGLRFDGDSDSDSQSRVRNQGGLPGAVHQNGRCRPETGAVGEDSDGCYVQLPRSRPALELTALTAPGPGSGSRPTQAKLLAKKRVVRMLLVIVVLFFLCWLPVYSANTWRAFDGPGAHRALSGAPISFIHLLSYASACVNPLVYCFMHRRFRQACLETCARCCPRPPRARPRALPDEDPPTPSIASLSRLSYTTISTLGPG
compound,measurement,setting,value
"CSCC[C@H](NC(=O)[C@H](Cc1c[nH]c2ccccc12)NC(=O)CNC(=O)[C@H](Cc1ccc(O)cc1)NC(=O)[C@H](C)NC(=O)[C@@H](CCC(=O)O)NC(=O)CCSC1CC(=O)N(CCC(=O)NC2CCCN(O)C(=O)C=C(C)CCOC(=O)C(NC(=O)CCN3C(=O)CC(SCCC(=O)N[C@H](CCC(=O)O)C(=O)N[C@@H](C)C(=O)N[C@@H](Cc4ccc(O)cc4)C(=O)NCC(=O)N[C@@H](Cc4c[nH]c5ccccc45)C(=O)N[C@@H](CCSC)C(=O)N[C@@H](CC(=O)O)C(=O)N[C@@H](Cc4ccccc4)C(N)=O)C3=O)CCCN(O)C(=O)C=C(C)CCOC(=O)C(NC(C)=O)CCCN(O)C(=O)C=C(C)CCOC2=O)C1=O)C(=O)N[C@@H](CC(=O)O)C(=O)N[C@@H](Cc1ccccc1)C(N)=O (stereo partly shown) [^68Ga-labelled Dimer, metal not drawn]",Distribution coefficient logD (pH 7.4),[1],−2.38 ± 0.04
same,Tumour-to-organ ratio (T/O): A431-mock,[2],17.9 ± 6.1^c
same,Tumour-to-organ ratio (T/O): Blood,[2],16.0 ± 3.1^cd
same,Tumour-to-organ ratio (T/O): Bone,[2],11.6 ± 1.9^c
same,Tumour-to-organ ratio (T/O): Heart,[2],27.2 ± 4.8^cd
same,Tumour-to-organ ratio (T/O): Intestine,[2],19.9 ± 4.9^acd
same,Tumour-to-organ ratio (T/O): Kidneys,[2],0.30 ± 0.06^cd
same,Tumour-to-organ ratio (T/O): Liver,[2],11.1 ± 2.4^c
same,Tumour-to-organ ratio (T/O): Lung,[2],14.4 ± 2.3^cd
same,Tumour-to-organ ratio (T/O): Muscle,[2],31.4 ± 13.2^cd
same,Tumour-to-organ ratio (T/O): Pancreas,[2],17.9 ± 3.2^cd
same,Tumour-to-organ ratio (T/O): Spleen,[2],23.1 ± 4.2^cd
same,Tumour-to-organ ratio (T/O): Stomach,[2],4.0 ± 0.5^c
same,Biodistribution: A431-CCK2R tumour (receptor positive),[2]; 1 h,8.36 ± 0.90^ac % ID/g
same,Biodistribution: A431-mock tumour (receptor negative),[2]; 1 h,0.36 ± 0.22^cd % ID/g
same,Biodistribution: Blood,[2]; 1 h,0.53 ± 0.06^cd % ID/g
same,Biodistribution: Bone,[2]; 1 h,0.60 ± 0.21^cd % ID/g
same,Biodistribution: Heart,[2]; 1 h,0.31 ± 0.04^cd % ID/g
same,Biodistribution: Intestine,[2]; 1 h,0.44 ± 0.06^c % ID/g
same,Biodistribution: Kidneys,[2]; 1 h,28.9 ± 3.4^cd % ID/g
same,Biodistribution: Liver,[2]; 1 h,0.78 ± 0.09^c % ID/g
same,Biodistribution: Lung,[2]; 1 h,0.59 ± 0.08^cd % ID/g
same,Biodistribution: Muscle,[2]; 1 h,0.30 ± 0.08^cd % ID/g
same,Biodistribution: Pancreas,[2]; 1 h,0.48 ± 0.06^cd % ID/g
same,Biodistribution: Spleen,[2]; 1 h,0.37 ± 0.04^cd % ID/g
same,Biodistribution: Stomach,[2]; 1 h,2.13 ± 0.23^c % ID/g
DOTA-MG11: reference peptide: DOTA-conjugated minigastrin analogue MG11 (EAYGWMDF; synthetic human minigastrin analogue),IC50,[3],9.5 ± 0.5 nM
"CSCC[C@H](NC(=O)[C@H](Cc1c[nH]c2ccccc12)NC(=O)CNC(=O)[C@H](Cc1ccc(O)cc1)NC(=O)[C@H](C)NC(=O)[C@@H](CCC(=O)O)NC(=O)CCSC1CC(=O)N(CCC(=O)NC2CCCN(O)C(=O)C=C(C)CCOC(=O)C(NC(=O)CCN3C(=O)CC(SCCC(=O)N[C@H](CCC(=O)O)C(=O)N[C@@H](C)C(=O)N[C@@H](Cc4ccc(O)cc4)C(=O)NCC(=O)N[C@@H](Cc4c[nH]c5ccccc45)C(=O)N[C@@H](CCSC)C(=O)N[C@@H](CC(=O)O)C(=O)N[C@@H](Cc4ccccc4)C(N)=O)C3=O)CCCN(O)C(=O)C=C(C)CCOC(=O)C(NC(=O)CCN3C(=O)CC(SCCC(=O)N[C@H](CCC(=O)O)C(=O)N[C@@H](C)C(=O)N[C@@H](Cc4ccc(O)cc4)C(=O)NCC(=O)N[C@@H](Cc4c[nH]c5ccccc45)C(=O)N[C@@H](CCSC)C(=O)N[C@@H](CC(=O)O)C(=O)N[C@@H](Cc4ccccc4)C(N)=O)C3=O)CCCN(O)C(=O)C=C(C)CCOC2=O)C1=O)C(=O)N[C@@H](CC(=O)O)C(=O)N[C@@H](Cc1ccccc1)C(N)=O (stereo partly shown) [^89Zr-labelled Trimer, metal not drawn]",Distribution coefficient logD (pH 7.4),[1],−2.41 ± 0.04
same,Biodistribution: A431-CCK2R tumour (receptor positive),[2]; 1 h,4.28 ± 0.95^b % ID/g
same,Biodistribution: A431-mock tumour (receptor negative),[2]; 1 h,0.81 ± 0.24^d % ID/g
same,Biodistribution: Blood,[2]; 1 h,1.46 ± 0.32^d % ID/g
same,Biodistribution: Bone,[2]; 1 h,1.39 ± 0.65 % ID/g
same,Biodistribution: Heart,[2]; 1 h,0.92 ± 0.21^d % ID/g
same,Biodistribution: Intestine,[2]; 1 h,0.56 ± 0.14^d % ID/g
same,Biodistribution: Kidneys,[2]; 1 h,57.7 ± 14.4^e % ID/g
same,Biodistribution: Liver,[2]; 1 h,0.84 ± 0.21^d % ID/g
same,Biodistribution: Lung,[2]; 1 h,1.44 ± 0.39^d % ID/g
same,Biodistribution: Muscle,[2]; 1 h,0.47 ± 0.18^cd % ID/g
same,Biodistribution: Pancreas,[2]; 1 h,1.56 ± 0.44 % ID/g
same,Biodistribution: Spleen,[2]; 1 h,0.79 ± 0.23^d % ID/g
same,Biodistribution: Stomach,[2]; 1 h,3.10 ± 0.97 % ID/g
same,Biodistribution: A431-CCK2R tumour (receptor positive),[2]; 2 h,8.90 ± 3.10^e % ID/g
same,Biodistribution: A431-mock tumour (receptor negative),[2]; 2 h,0.93 ± 0.29^d % ID/g
same,Biodistribution: Blood,[2]; 2 h,1.19 ± 0.32^d % ID/g
same,Biodistribution: Bone,[2]; 2 h,2.07 ± 0.68 % ID/g
same,Biodistribution: Heart,[2]; 2 h,0.91 ± 0.25^d % ID/g
same,Biodistribution: Intestine,[2]; 2 h,0.44 ± 0.30^d % ID/g
same,Biodistribution: Kidneys,[2]; 2 h,96.5 ± 23.6^f % ID/g
same,Biodistribution: Liver,[2]; 2 h,1.28 ± 0.35^d % ID/g
same,Biodistribution: Lung,[2]; 2 h,1.21 ± 0.23^d % ID/g
same,Biodistribution: Muscle,[2]; 2 h,0.42 ± 0.07^d % ID/g
same,Biodistribution: Pancreas,[2]; 2 h,1.51 ± 0.40 % ID/g
same,Biodistribution: Spleen,[2]; 2 h,0.90 ± 0.25^d % ID/g
same,Biodistribution: Stomach,[2]; 2 h,3.15 ± 0.75 % ID/g
same,Biodistribution: A431-CCK2R tumour (receptor positive),[2]; 4 h,14.39 ± 3.92 % ID/g
same,Biodistribution: A431-mock tumour (receptor negative),[2]; 4 h,0.66 ± 0.06^d % ID/g
same,Biodistribution: Blood,[2]; 4 h,0.75 ± 0.26^d % ID/g
same,Biodistribution: Bone,[2]; 4 h,4.41 ± 1.31 % ID/g
same,Biodistribution: Heart,[2]; 4 h,0.91 ± 0.09^d % ID/g
same,Biodistribution: Intestine,[2]; 4 h,0.65 ± 0.07^d % ID/g
same,Biodistribution: Kidneys,[2]; 4 h,150.5 ± 18.3 % ID/g
same,Biodistribution: Liver,[2]; 4 h,1.71 ± 0.32^d % ID/g
same,Biodistribution: Lung,[2]; 4 h,0.84 ± 0.20^d % ID/g
same,Biodistribution: Muscle,[2]; 4 h,0.62 ± 0.23 % ID/g
same,Biodistribution: Pancreas,[2]; 4 h,2.34 ± 0.59 % ID/g
same,Biodistribution: Spleen,[2]; 4 h,0.95 ± 0.13^d % ID/g
same,Biodistribution: Stomach,[2]; 4 h,3.50 ± 0.86^d % ID/g
